Results: patent US20230104769A1 (MABWELL SHANGHAI BIOSCIENCE, published 2023)

Experiments:
[1] = target: T1, human PD-1-hFc (NCBI accession No.: NP_005009.2, 21aa-167aa, Lot: 20180329) (human, UniProt Q15116 21-167); test: competition ELISA, plate-bound PD-1-hFc, competitor PD-L1-mFc 1 µg/mL; competitor PD-L1
T1 construct: range 21-167; not shown: human Fc (hFc)
Protocol: Afterwards, HRP-anti-mouse Fc (Cat: 115-035-071, Jackson Immuno Research) which was diluted at a dilution of 1:5000 was added to the plate for reacting for 45 min. Later, TMB substrate (Cat: ME142, Beijing Taitianhe Biotech Co., Ltd.) was added to develop color for 15 min, which was followed by the addition of 2 M HCl to terminate the reaction and then the plate was detected by a microplate reader. With 630 nm as reference wavelength, the absorbance at 450 nm (A450 nm-630 nm) of each well in the plate was read and recorded.

[2] = target: T1, human PD-1-hFc (NCBI accession No.: …); test: competition ELISA, plate-bound PD-1-hFc, competitor PD-L2-hFc-Biotin 2 µg/mL; competitor PD-L2
Protocol: Afterwards, HRP-streptavidin (Cat: 52438, Sigma) which was diluted at a dilution of 1:2000 was added to the plate for reacting for 30 min. Later, TMB substrate was added to develop color for 15 min, which was followed by the addition of 2 M HCl to terminate the reaction and then the plate was detected by a microplate reader. With 630 nm as reference wavelength, the absorbance at 450 nm (A450 nm-630 nm) of each well in the plate was read and recorded.

[3] = target: T2, mouse PD-1 (Cat: 50124-M08H, Sino Biological Inc.) (mouse, UniProt Q02242 25-167); test: ELISA, plate coated with the PD-1 protein at 1 µg/mL, biotinylated h317, HRP-streptavidin
T2 construct: Bought recombinant protein; also called recombinant mouse PD-1
T2 sequence (looked up): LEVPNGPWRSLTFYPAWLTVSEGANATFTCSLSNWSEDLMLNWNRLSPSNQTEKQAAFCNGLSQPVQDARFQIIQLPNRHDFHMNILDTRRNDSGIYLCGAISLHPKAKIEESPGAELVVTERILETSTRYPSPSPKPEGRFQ
Protocol: The plates were washed three times with PBS subsequently, and 5% BSA-PBS was added for blocking for 60 min at 37° C. […] Again, the plates were washed four times with PBST, then HRP-streptavidin (Cat: 019-035-098, Jackson immuno Research) with a dilution of 1:100 was added for a 30 min incubation at 37° C. Once again, the plates were washed four times with PBST, and TMB substrate was added for developing color through incubating for 10 min at 37° C., then the reaction was terminated by adding 2 M HCl. With 630 nm as reference wavelength, the absorbance at a wavelength of 450 nm (A450 nm-630 nm) of each well in the plates was read and recorded.

T1 sequence (Q15116 21-167 limits assumed, form in doubt): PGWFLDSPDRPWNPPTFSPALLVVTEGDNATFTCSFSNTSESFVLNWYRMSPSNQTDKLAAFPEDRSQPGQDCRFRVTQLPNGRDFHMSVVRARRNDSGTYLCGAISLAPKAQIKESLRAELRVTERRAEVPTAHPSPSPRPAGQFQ

IC50 [1]: 1.4 nM
IC50 [2]: 1.2 nM
B1: h317 (humanized anti-human PD-1 antibody) (antibody, V domains shown)
VH: EVQLVESGGGLVKPGGSLRLSCAASGFTFSSYDMSWVRQAPGKGLEWVATISGGGSYTYYPDSVKGRFTISRDNAKNSLYLQMNSLRAEDTAVYYCASPDSSGVAYWGQGTLVTVSS
VL: DIVMTQSPLSLPVTPGEPASITCKASQDVETVVAWYLQKPGQSPRLLIYWASTRHTGVPDRFSGSGSGTDFTLKISRVEAEDVGVYYCQQYSRYPWTFGQGTKL
notes: also called h317-biotin; biotinylated h317
binding result [3]: no binding (tested: 1 nM (log(nM) 0 on the axis))
